{"source": "paper PMC11014249", "molecules": {"B1": {"name": "PaceA (dsDNA)", "DNA 1": "TCGTGTAGTAGTCTTGAAAAAACACTACAAAA", "DNA 2": "TTTTGTAGTGTTTTTTCAAGACTACTACACGA"}, "B2": {"name": "Variant1 (dsDNA)", "DNA 1": "ATCTGTAGTGGGACTACAAG", "DNA 2": "CTTGTAGTCCCACTACAGAT"}, "B3": {"name": "PaceE (dsDNA)", "DNA 1": "ATCTGTAGTAAAACTACAAG", "DNA 2": "CTTGTAGTTTTACTACAGAT"}}, "key": {"[1]": {"target": "RccR from Pseudomonas aeruginosa (P. aeruginosa)", "test": "SEC"}, "RccR E200A [2]": {"target": "T1, RccR E200A (Pseudomonas aeruginosa, UniProt A0A071KWR3 1-293, E200A)", "T1 sequence": "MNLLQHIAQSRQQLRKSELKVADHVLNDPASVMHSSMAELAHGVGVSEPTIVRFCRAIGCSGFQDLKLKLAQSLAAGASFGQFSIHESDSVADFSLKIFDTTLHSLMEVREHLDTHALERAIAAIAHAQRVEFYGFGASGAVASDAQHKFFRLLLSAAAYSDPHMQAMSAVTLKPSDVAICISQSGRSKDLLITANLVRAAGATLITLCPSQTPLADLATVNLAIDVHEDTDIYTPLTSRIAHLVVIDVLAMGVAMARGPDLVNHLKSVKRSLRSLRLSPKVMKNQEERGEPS", "test": "EMSA"}, "RccR (PaRccR)": {"target": "T2, RccR (PaRccR) (Pseudomonas aeruginosa, UniProt A0A071KWR3 1-293)", "T2 sequence": "T1 sequence with A200E", "test": "EMSA"}, "RccR H148A": {"target": "T3, RccR H148A (Pseudomonas aeruginosa, UniProt A0A071KWR3 1-293, H148A)", "T3 sequence": "T1 sequence with H148A, A200E", "test": "EMSA"}, "RccR K270A": {"target": "T4, RccR K270A (Pseudomonas aeruginosa, UniProt A0A071KWR3 1-293, K270A)", "T4 sequence": "T1 sequence with A200E, K270A", "test": "EMSA"}, "RccR SSSS": {"target": "T5, RccR SSSS (Pseudomonas aeruginosa, UniProt A0A071KWR3 1-293, S139A;S183A;S185A;S188A)", "T5 sequence": "T1 sequence with S139A, S183A, S185A, S188A, A200E", "test": "EMSA"}, "RccR H164A": {"target": "T6, RccR H164A (Pseudomonas aeruginosa, UniProt A0A071KWR3 1-293, H164A)", "T6 sequence": "T1 sequence with H164A, A200E", "test": "EMSA"}, "RccR R152A": {"target": "T7, RccR R152A (Pseudomonas aeruginosa, UniProt A0A071KWR3 1-293, R152A)", "T7 sequence": "T1 sequence with R152A, A200E", "test": "EMSA"}, "RccR T231A": {"target": "T8, RccR T231A (Pseudomonas aeruginosa, UniProt A0A071KWR3 1-293, T231A)", "T8 sequence": "T1 sequence with A200E, T231A", "test": "EMSA"}, "RccR ΔSLR": {"target": "T9, RccR ΔSLR (Pseudomonas aeruginosa, UniProt A0A071KWR3 1-274+278-293, internal_change)", "T9 sequence": "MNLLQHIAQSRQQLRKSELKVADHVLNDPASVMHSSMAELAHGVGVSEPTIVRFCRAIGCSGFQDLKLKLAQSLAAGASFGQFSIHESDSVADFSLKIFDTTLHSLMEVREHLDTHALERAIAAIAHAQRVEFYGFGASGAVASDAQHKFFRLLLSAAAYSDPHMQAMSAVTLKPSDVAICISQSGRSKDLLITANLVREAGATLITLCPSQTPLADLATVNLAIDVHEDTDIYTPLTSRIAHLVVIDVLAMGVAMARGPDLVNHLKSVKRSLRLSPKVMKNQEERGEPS", "test": "EMSA"}, "RccR E200A [3]": {"target": "T1, RccR E200A", "test": "EMSA", "remark": "listed apart in the source"}}, "note": "Substitutions are numbered along the chain they refer to. Like-named read-outs stand apart in the source and are kept apart here.", "data": [{"molecule": "RccR from Pseudomonas aeruginosa (natural protein)", "values": [{"measurement": "stoichiometry N", "setting": "[1]", "value": 4}]}, {"molecule": "B1", "values": [{"measurement": "binding result", "setting": "RccR E200A [2]", "value": "binds"}]}, {"molecule": "B2", "values": [{"measurement": "binding result", "setting": "RccR (PaRccR)", "value": "binds"}]}, {"molecule": "B3", "values": [{"measurement": "binding result", "setting": "RccR H148A", "value": "binds"}, {"measurement": "binding result", "setting": "RccR K270A", "value": "binds"}, {"measurement": "binding result", "setting": "RccR SSSS", "value": "binds"}, {"measurement": "binding result", "setting": "RccR H164A", "value": "binds"}, {"measurement": "binding result", "setting": "RccR R152A", "value": "binds"}, {"measurement": "binding result", "setting": "RccR T231A", "value": "binds"}, {"measurement": "binding result", "setting": "RccR ΔSLR", "value": "binds"}, {"measurement": "binding result", "setting": "RccR E200A [3]", "value": "binds"}]}]}
